For test [1], the target named is T1, mouse UBA7 (mouse, UniProt Q9DBK7 1-977).
T1 sequence (looked up): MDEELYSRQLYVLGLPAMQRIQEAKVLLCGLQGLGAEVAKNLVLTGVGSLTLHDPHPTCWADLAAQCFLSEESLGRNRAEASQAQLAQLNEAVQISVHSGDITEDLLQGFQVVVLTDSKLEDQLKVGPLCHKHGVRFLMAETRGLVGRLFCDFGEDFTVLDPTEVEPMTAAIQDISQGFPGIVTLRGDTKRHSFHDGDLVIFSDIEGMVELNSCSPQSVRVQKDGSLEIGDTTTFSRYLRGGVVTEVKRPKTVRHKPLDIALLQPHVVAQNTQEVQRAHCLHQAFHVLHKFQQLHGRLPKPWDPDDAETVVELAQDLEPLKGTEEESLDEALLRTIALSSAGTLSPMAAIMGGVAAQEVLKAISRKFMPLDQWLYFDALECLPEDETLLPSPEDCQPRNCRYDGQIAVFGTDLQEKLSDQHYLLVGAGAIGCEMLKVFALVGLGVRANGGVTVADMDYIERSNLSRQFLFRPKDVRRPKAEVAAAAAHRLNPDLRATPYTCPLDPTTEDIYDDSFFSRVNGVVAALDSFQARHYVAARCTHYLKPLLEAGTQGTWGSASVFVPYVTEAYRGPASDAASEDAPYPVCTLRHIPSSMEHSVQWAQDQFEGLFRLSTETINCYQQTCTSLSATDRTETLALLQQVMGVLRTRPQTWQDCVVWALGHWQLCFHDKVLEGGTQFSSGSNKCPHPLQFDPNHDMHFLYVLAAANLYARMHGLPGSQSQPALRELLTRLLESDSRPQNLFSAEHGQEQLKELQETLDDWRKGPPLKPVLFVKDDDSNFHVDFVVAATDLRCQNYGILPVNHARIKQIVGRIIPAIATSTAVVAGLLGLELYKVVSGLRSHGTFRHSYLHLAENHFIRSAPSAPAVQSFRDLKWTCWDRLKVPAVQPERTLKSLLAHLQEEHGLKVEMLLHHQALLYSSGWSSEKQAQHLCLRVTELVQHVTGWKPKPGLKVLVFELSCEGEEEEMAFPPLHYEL
Kind of test: disulfide complex formation on non-reducing SDS-PAGE.

For test [2], the target named is T2, human UBA7 (human, UniProt P41226 1-1012).
T2 sequence: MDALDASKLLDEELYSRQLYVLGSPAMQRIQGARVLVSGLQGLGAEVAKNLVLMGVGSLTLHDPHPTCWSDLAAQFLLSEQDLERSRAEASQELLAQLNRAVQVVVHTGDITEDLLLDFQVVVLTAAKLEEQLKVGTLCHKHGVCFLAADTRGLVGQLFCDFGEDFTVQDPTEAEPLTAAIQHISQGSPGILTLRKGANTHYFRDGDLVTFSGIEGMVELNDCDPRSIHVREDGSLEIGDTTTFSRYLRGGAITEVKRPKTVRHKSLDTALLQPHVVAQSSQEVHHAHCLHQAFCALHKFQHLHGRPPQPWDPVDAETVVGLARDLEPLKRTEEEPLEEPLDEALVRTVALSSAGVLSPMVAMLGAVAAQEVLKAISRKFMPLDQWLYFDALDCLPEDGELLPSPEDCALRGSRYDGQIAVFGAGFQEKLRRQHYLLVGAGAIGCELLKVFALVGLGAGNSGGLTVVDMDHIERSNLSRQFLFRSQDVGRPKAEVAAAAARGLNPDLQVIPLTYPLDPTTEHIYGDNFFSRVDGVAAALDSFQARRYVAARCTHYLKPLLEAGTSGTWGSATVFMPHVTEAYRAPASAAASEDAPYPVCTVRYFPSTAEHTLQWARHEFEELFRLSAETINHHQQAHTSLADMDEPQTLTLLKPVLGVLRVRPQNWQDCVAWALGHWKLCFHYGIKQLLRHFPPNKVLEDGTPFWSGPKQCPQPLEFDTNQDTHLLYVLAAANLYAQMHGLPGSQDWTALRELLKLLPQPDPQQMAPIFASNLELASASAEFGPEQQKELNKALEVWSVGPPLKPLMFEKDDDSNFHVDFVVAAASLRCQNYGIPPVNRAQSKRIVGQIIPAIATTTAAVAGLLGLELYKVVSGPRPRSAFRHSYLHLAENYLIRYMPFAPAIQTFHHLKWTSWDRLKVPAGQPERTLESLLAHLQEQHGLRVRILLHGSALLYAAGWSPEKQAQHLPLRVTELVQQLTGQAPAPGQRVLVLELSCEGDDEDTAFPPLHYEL
The test is described as above.

B1: mouse UBE2L6 (enzyme, UniProt Q9QZU9 1-153, looked up)
chain: MMASKRVAKELESLSKELPPYLRQLSSDDANVLVWHMLLLPDQLPYGLKAFQVRIDFPREYPFKPPTLRFTTKIYHPNVREDGLVCLPLISNENWKPYTKPYQVLEALNVLVSKPNLEEPVRLELADLLTQNPEMFRKKAEEFTLKFGVDRPS
In the case of B1, in test [1], the binding result is on record as “binds”.

B2: human UBE2L6 (enzyme)
chain: not shown
Regarding B2, the binding result in test [2] is given as “binds”.

The values above are taken from paper doi:10.1101/2024.11.07.622398 (bioRxiv, 2024).
